Common to all, as to assay: SPR; 5 mM Mg2+; SPR (Biacore 8K, CM5 chip, protein immobilized): DPBS with 5 mM Mg2+, 25 C; aptamer 0-1000 nM; pH not stated
Holding throughout (conditions): protein: commercial

Data set [1] concerns the target T1, histidine-rich glycoprotein (human, UniProt P04196 19-525).
T1 sequence: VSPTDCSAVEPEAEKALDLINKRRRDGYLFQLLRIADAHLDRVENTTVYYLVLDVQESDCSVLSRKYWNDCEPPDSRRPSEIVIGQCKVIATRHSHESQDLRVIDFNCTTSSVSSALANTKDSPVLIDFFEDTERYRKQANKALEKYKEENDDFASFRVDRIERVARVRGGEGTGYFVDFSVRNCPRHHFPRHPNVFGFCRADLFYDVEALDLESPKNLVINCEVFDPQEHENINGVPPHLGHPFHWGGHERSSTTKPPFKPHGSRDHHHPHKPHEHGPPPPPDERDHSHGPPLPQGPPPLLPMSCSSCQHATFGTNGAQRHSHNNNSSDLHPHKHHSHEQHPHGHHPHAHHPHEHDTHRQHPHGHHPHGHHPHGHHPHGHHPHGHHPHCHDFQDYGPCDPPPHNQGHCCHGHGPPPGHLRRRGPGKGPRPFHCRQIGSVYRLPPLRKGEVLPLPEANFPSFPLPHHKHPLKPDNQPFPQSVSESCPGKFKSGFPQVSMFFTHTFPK

The target in data set [2] is complement C1q subcomponent subunit B (human, UniProt P02746 28-253).
Sequence of complement C1q subcomponent subunit B (P02746 28-253): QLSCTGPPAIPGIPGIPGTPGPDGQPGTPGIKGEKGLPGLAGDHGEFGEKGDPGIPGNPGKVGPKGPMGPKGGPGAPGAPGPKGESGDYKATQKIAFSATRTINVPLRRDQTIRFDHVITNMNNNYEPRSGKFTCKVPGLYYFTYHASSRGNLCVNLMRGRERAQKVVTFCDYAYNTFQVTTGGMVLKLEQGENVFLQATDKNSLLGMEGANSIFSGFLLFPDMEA
The target in data set [3] is complement factor H-related protein 1 (human, UniProt Q03591 19-330).
Sequence of complement factor H-related protein 1 (Q03591 19-330): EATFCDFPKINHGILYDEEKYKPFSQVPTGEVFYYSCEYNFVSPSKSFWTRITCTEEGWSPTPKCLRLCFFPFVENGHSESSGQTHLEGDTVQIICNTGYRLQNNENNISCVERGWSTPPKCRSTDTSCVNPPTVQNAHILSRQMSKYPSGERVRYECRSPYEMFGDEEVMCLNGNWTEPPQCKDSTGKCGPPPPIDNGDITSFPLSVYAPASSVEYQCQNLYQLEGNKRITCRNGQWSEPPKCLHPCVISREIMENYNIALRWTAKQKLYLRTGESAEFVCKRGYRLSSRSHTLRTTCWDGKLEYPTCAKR
In the next data set the target is apolipoprotein C-III (human, UniProt P02656 21-99).
Sequence of apolipoprotein C-III (P02656 21-99): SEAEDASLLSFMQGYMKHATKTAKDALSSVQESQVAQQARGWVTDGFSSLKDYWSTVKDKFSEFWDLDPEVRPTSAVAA
The next data set addresses T2, serum amyloid A2 (human, UniProt P0DJI9 19-122).
T2 sequence: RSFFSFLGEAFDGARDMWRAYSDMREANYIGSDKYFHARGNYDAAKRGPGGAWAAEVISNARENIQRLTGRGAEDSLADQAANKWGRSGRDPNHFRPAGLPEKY

In data set [4] the target is T3, vitamin K-dependent protein S (human, UniProt P07225 42-676).
T3 sequence: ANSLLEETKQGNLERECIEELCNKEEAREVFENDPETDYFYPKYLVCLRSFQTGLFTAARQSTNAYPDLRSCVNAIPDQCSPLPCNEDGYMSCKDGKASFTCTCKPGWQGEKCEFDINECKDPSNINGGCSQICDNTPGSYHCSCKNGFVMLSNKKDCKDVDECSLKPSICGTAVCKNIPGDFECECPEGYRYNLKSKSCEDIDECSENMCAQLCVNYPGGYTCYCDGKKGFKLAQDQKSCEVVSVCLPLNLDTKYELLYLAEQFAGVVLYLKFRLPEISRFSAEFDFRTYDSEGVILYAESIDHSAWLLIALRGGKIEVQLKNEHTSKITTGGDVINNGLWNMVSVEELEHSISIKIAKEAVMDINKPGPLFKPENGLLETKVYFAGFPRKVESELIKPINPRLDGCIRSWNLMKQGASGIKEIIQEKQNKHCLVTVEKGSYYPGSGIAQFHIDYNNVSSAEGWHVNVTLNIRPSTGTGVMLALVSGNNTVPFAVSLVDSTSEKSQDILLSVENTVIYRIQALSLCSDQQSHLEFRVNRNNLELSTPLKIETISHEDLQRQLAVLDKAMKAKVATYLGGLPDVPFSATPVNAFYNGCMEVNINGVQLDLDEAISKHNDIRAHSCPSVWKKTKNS

B1: OV8 (ssDNA)
DNA: CAGCACCGTCAACTGAATGAGTCGCGGGTGGGTGGGTGGCCTTGCTCGGTGATGCGATGGAGATGT
Consider B1, for which the binding result in data set [1] is “binds”.

B2: OV2 (ssDNA)
DNA: CAGCACCGTCAACTGAATGTGGGTGGGTGGGTGGTAAGTTGTGCCGACGTGATGCGATGGAGATGT
Regarding B2, in data set [2], the binding result was “binds”.

B3: CRC5 (ssDNA)
DNA: CAGCACCGTCAACTGAATCCTGCGGGCGGGTGGGTGGTTGGATTCTTGGTGATGCGATGGAGATGT
On to B3, for which, in data set [3], the binding result was “binds”.

B4: CRC4 (ssDNA)
DNA: CAGCACCGTCAACTGAATGCTGAGGGCGGGTGGGTGGCACATTCGATGGTGATGCGATGGAGATGT
With B4, the binding result in the data set with apolipoprotein C-III is “binds”.

B5: OV10 (ssDNA)
DNA: CAGCACCGTCAACTGAATGAGGTGGGAGGGAGGGGTTGACCTTGCGTGGTGATGCGATGGAGATGT
In the case of B5, in the data set with serum amyloid A2, the binding result was “binds”.

B6: CRC7 (ssDNA)
DNA: CAGCACCGTCAACTGAATCGGCGGGTGGGTGGGCGGAGATTTAACGTCGTGATGCGATGGAGATGT
For the molecule B6, the binding result in data set [4] was “binds”.

The record behind these values is article PMC12884786, “Evolution of Multivalent Aptamer Corona for High‐Throughput Multiplexed Detection of Multiple Cancers”.
